Literature values in PMC11430116.

Target: VDAC1 (Homo sapiens) (UniProt P21796)
Sequence of UniProt P21796 (P21796 2-283): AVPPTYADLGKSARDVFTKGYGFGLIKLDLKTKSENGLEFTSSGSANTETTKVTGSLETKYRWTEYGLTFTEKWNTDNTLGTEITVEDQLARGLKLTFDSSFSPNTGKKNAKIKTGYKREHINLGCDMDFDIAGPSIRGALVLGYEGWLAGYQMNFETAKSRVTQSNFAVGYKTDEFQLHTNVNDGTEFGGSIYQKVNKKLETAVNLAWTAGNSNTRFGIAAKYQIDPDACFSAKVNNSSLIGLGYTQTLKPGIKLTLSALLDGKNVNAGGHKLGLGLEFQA

Kd: 950 nM
Substance: MAVS (from UniProt Q7Z434)
